Measured values: the supplement of paper PMC9170038

Test system: MS2 coat protein
Test: apparent KD of MS2 coat protein; designed switch direction (-1 OFF switch, 1 ON switch): -1; higher = weaker reporter binding
Method in brief: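 Stalled E. coli RNA polymerase transcribed designed RNA switches on Illumina chips, which were then titrated with SNAP-549-labelled MS2 coat protein, doubling from 0.7 or 1.5 nM to 3 µM. Steps lasted from 0.8–1.5 h at the lowest concentration to 10–20 min at the highest. The apparent KD is each design's median over clusters of curve-fitted normalised fluorescence.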

[1] = Eterna round: R95, input ligand: microRNA oligo, concentration not stated
[2] = input ligand: microRNA oligo, concentration not stated
[3] = Eterna round: R95, input ligand: FMN 200 uM
[4] = Eterna round: R95, input ligand: none

With “GAGGUGUUAGGAUAUCGGAGAUGGAGAAGAACGGGAAGAGGCGAGAAGGAACAUGAGGAUCACCCAUGUAGGUG [JR_Exclu4_Sub029] (puzzle: Exclusion 4)” the “apparent KD of MS2 coat protein” value [1] was 0.357 µM.

With “CCCAGUUAUUGAGGAUAUUGUACAUGAGGAUCACCCAUGUAAUAAAUGAGGAUUUCGGGUGUCUACAAGAAGGCAAGGAUAGGC [Ostracism 20 - Jieux - Exclusion NG 2] (Eterna round: R96, puzzle: Exclusion NG 2)” the “apparent KD of MS2 coat protein” value (input ligand: FMN 200 uM) was 0.0546 µM, the “apparent KD of MS2 coat protein” value [2] was 0.0461 µM and the “apparent KD of MS2 coat protein” value (input ligand: none) was 0.0468 µM.

In the case of “ACAUGAGGAUCACCCAUGUUUUUCGGGUACUCUUUUUACAGCAAGGAUAUGCAUUAUUUAUGUACGCAGAAGGUGCUUUACGUC [JR_ExcNG3_Sub065] (Eterna round: R96, puzzle: Exclusion NG 3)”, the “apparent KD of MS2 coat protein” value [2] is reported as 0.0829 µM.

“GGAUCGAGUGUGAGGAUAUACCACUGGAUACAGUGGUAGAAGGCACAUGAGGAUCACCCAUGUCCCUACGAUCC [Fiskers BMX 4 - 45] (puzzle: Brourd's mod of Exclusion 4)” was tested, and the “apparent KD of MS2 coat protein” value [1] was 0.0282 µM.

With “GAGAAUUUAUAGGAUAUCGUAUGCAUAAUUUAACGAGAAGGAUGAACAUGAGGAUCACCCAUGUGGUAUCAUGG [salish99_ex6_r3_001] (puzzle: Exclusion 6)” the “apparent KD of MS2 coat protein” value [3] was 0.0889 µM, the “apparent KD of MS2 coat protein” value [1] was 0.192 µM and the “apparent KD of MS2 coat protein” value [4] was 0.122 µM.

With “CACCGGGUAGGAUAUACUUGAGGAUCACCCAAGUGGGAACCUACUCGGUGGUCCUUAAGUAGAAGGACCAACGG [Ex 2] (Eterna round: R97, puzzle: Exclusion 3)” the “apparent KD of MS2 coat protein” value (input ligand: FMN 200 uM) was 0.0115 µM and the “apparent KD of MS2 coat protein” value (input ligand: none) was 0.0119 µM.

With “ACAUUGCGAGGAUAUACAUGAGGAUCACCCAUGUGGUGGCAGUUACGGUAGGACUAGUGUAGAAGGUGCCAUGG [EX3 #23] (Eterna round: R97, puzzle: Exclusion 3)” the “apparent KD of MS2 coat protein” value (input ligand: FMN 200 uM) was 0.441 µM and the “apparent KD of MS2 coat protein” value (input ligand: none) was 0.401 µM.

With “GUUAUGCAGCAGGAUAUCGAUCCGCGGUAUGAUCGAGAAGGGCUGACAUGAGGAUCACCCAUGUGCGUCCUAGG [jl-ex6-4.46 ViennaUCT mod] (Eterna round: R97, puzzle: Exclusion 6)” the “apparent KD of MS2 coat protein” value (input ligand: FMN 200 uM) was 0.17 µM and the “apparent KD of MS2 coat protein” value (input ligand: none) was 0.0366 µM.

“UUGUAUAUAGGAUAUGUAAGAAGAAACAUGAGGAUCACCCAUGUAGCCUCAAAUUUUAUGACAGAAGGAUAUGUUA [Default title] (Eterna round: R97, puzzle: Exclusion 5)” was tested, and the “apparent KD of MS2 coat protein” value (input ligand: FMN 200 uM) was 0.0362 µM and the “apparent KD of MS2 coat protein” value (input ligand: none) was 0.056 µM.

In the case of “UCGUGAUUAGAGGAUAUAUUUUGAGUCAGAACAAUAGAAGGCUAAACAUGAGGAUCACCCAUGUAUAUGUGUAA [JR_Ex6_Sub062] (Eterna round: R97, puzzle: Exclusion 6)”, the “apparent KD of MS2 coat protein” value (input ligand: FMN 200 uM) is reported as 0.14 µM and the “apparent KD of MS2 coat protein” value (input ligand: none) is reported as 0.0467 µM.

With “CUGCUCCGUGUAGGAUAUGCGCGCAACCAACGCGCAGAAGGACAUGAGGAUCACCCAUGUAUGUUAUUAUCACGUGAGGCGCAG [Design 33] (Eterna round: R96, puzzle: Exclusion NG 1)” the “apparent KD of MS2 coat protein” value (input ligand: FMN 200 uM) was 0.0289 µM, the “apparent KD of MS2 coat protein” value [2] was 0.0132 µM and the “apparent KD of MS2 coat protein” value (input ligand: none) was 0.0166 µM.

For “GUUUUAUAUGAAGGAUAUACUUAACAUGAGGAUCACCCAUGUGGUGUUGUGAGUGAGUGAGUUUAGUAGAAGGUCAAUUCUUUU [JMF's solution 99] (Eterna round: R96, puzzle: Exclusion NG 2)”, the “apparent KD of MS2 coat protein” value (input ligand: FMN 200 uM) was 0.622 µM, the “apparent KD of MS2 coat protein” value [2] was 0.593 µM and the “apparent KD of MS2 coat protein” value (input ligand: none) was 0.408 µM.

In the case of “GACGCUAAAGGAUAUACAUGAGGAUCACCCAUGUUGAGGAAGGUUAGAUGAGGAGUAAGUAGAAGGUUAGACGA [JR_Exclu3_Sub091] (puzzle: Exclusion 3)”, the “apparent KD of MS2 coat protein” value [3] is reported as 0.032 µM, the “apparent KD of MS2 coat protein” value [1] is reported as 0.0274 µM and the “apparent KD of MS2 coat protein” value [4] is reported as 0.0308 µM.

“CCCAGGGCAGGAUAUAGAGGGCGAAACAUGAGGAUCACCCAUGUGACCUCGGAACAGCUGCUAGAAGGGCCAAAUU [Beesquti] (puzzle: Exclusion 5)” was tested, and the “apparent KD of MS2 coat protein” value [3] was 0.0211 µM, the “apparent KD of MS2 coat protein” value [1] was 0.0148 µM and the “apparent KD of MS2 coat protein” value [4] was 0.0153 µM.

With “AGAAGUAGUACCCGAUCCUACAUGAGGAUCACCCAUGUAGCUAGACGUGCACGCGAUGCUCGUCAGACUACCAGAUG [salish99_TOv1_r3_032] (puzzle: Sensor v3, turn-off variant 1)” the “apparent KD of MS2 coat protein” value [3] was 0.153 µM, the “apparent KD of MS2 coat protein” value [1] was 0.144 µM and the “apparent KD of MS2 coat protein” value [4] was 0.189 µM.

With “UCAUAACAUGAGGAUCACCCAUGUGAGGAUAUGAUACUAUGUACUUCGGUACAUAGUAUCAGAAGGCACAUGCU [Brourd's Ex1-3: 11 (nt 72 G)] (puzzle: Exclusion 1)” the “apparent KD of MS2 coat protein” value [3] was 0.0348 µM, the “apparent KD of MS2 coat protein” value [1] was 0.127 µM and the “apparent KD of MS2 coat protein” value [4] was 0.127 µM.

For “UUGAUACAUGAGGAUCACCCAUGUUAGGAUAUACGCAUGCAUGCAUGCAUGCAUGCAAGUAGAAGGAACCAUGC [Design #1] (Eterna round: R97, puzzle: Exclusion 1)”, the “apparent KD of MS2 coat protein” value (input ligand: FMN 200 uM) was 0.0307 µM and the “apparent KD of MS2 coat protein” value (input ligand: none) was 0.042 µM.

In the case of “AAAACAAACGAAGGAUAUGCAACCCGGCGGUACGCAGAAGGUCGAAAGAUUUUCAUUCUACAUGAGGAUCACCCAUGUACGGGC [Leange] (Eterna round: R96, puzzle: Exclusion NG 1)”, the “apparent KD of MS2 coat protein” value (input ligand: FMN 200 uM) is reported as 0.0485 µM, the “apparent KD of MS2 coat protein” value [2] is reported as 0.0397 µM and the “apparent KD of MS2 coat protein” value (input ligand: none) is reported as 0.0523 µM.

For “CAACCACGUGCAGGAUAUGCGAAGUGAUUCGGUGGUACCACAGCGUAAACAUGAGGAUCACCCAUGUAGAAGGGCAUGAGGGCU [Eternabot solution 16] (Eterna round: R96, puzzle: Exclusion NG 2)”, the “apparent KD of MS2 coat protein” value (input ligand: FMN 200 uM) was 0.352 µM, the “apparent KD of MS2 coat protein” value [2] was 0.119 µM and the “apparent KD of MS2 coat protein” value (input ligand: none) was 0.123 µM.

In the case of “UAAACAAGCUAAAGAUCCUACAUGAGGAUCACCCAUGUGCUCGUCUUGUAACGUACUGUGACGAAAGUCACGGUACG [JL TOV1 3.10] (Eterna round: R97, puzzle: Sensor, turn-off variant 1)”, the “apparent KD of MS2 coat protein” value (input ligand: FMN 200 uM) is reported as 0.194 µM and the “apparent KD of MS2 coat protein” value (input ligand: none) is reported as 0.202 µM.

“CUUUAGUAAGGAUAUCAGCUUAGGAGGUUGGUAAUGAGAGCUGAGAAGGUACAUGAGGAUCACCCAUGUUAGUU [JL Zatite mod 9] (puzzle: Exclusion 4)” was tested, and the “apparent KD of MS2 coat protein” value [1] was 0.0171 µM.

In the case of “UCCUGGCGAGGAUAUACAAAGAUUUUUUCGUUUUGUUUCGAACAUGAGGAUCACCCAUGUAGAAGGUGCUGCUG [JR_Ex2_Sub015] (Eterna round: R97, puzzle: Exclusion 2)”, the “apparent KD of MS2 coat protein” value (input ligand: FMN 200 uM) is reported as 0.0464 µM and the “apparent KD of MS2 coat protein” value (input ligand: none) is reported as 0.0467 µM.

For “ACAUGAGGAUCACCCAUGUACAGGGUUUAGCCUCAUUGUUUGAAGGAUAUACUCAGUUAGUUGUUGUAGAAGGUCACCUUUUAU [JR_ExcNG3_Sub003] (Eterna round: R96, puzzle: Exclusion NG 3)”, the “apparent KD of MS2 coat protein” value (input ligand: FMN 200 uM) was 3.45 µM, the “apparent KD of MS2 coat protein” value [2] was 1.73 µM and the “apparent KD of MS2 coat protein” value (input ligand: none) was 1.36 µM.

“UUUUAACAUGAGGAUCACCCAUGUGAGGAUAUCGAAAUUUAUAUUUAUAUUAAUAAUACGAGAAGGCACAUUUU [JMF 78] (puzzle: Exclusion 1)” was tested, and the “apparent KD of MS2 coat protein” value [1] was 0.057 µM.

For “GAUGUCCAGCGAGGAUAUCUGGUAAAUAAAAUGAGAGAAGGCGCGAAGACAUGAGGAUCACCCAUGUUGUCGCAUGGGAGCCUG [Enqurete] (Eterna round: R96, puzzle: Exclusion NG 1)”, the “apparent KD of MS2 coat protein” value (input ligand: FMN 200 uM) was 0.116 µM, the “apparent KD of MS2 coat protein” value [2] was 0.0229 µM and the “apparent KD of MS2 coat protein” value (input ligand: none) was 0.0291 µM.

“AUUACGUCAGGAUAUGCGUGUUAGACAUGUUUAACCUAAGAACAUGAGGAUCACCCAUGUAGAAGGGACGCUCA [Eternabot (L1) Solution 78] (Eterna round: R97, puzzle: Exclusion 2)” was tested, and the “apparent KD of MS2 coat protein” value (input ligand: FMN 200 uM) was 0.0689 µM and the “apparent KD of MS2 coat protein” value (input ligand: none) was 0.0649 µM.

In the case of “GAAAAGGUAGAGGAUAUUUCAGAUCAAAGCUGCAAAGAAGGCUGCACAUGAGGAUCACCCAUGUGGUCUUUAAA [Mod of Quesina 10 - Jieux - Exclusion 6] (Eterna round: R97, puzzle: Exclusion 6)”, the “apparent KD of MS2 coat protein” value (input ligand: FMN 200 uM) is reported as 0.0701 µM and the “apparent KD of MS2 coat protein” value (input ligand: none) is reported as 0.0176 µM.

In the case of “UAUAUAUAGUAAGGAUAUGUAAUUAUUUUAUAAACAGAAGGUACUGACAUGAGGAUCACCCAUGUUUUAGUGUGGGCAUGUAGA [JMF's solution 5] (Eterna round: R96, puzzle: Exclusion NG 1)”, the “apparent KD of MS2 coat protein” value [2] is reported as 0.0657 µM.

In the case of “AUAAUGUCAGGAUAUCAGACGUACAGCUUCGGCUGUACGUCUGAGAAGGGACAUGAGGAUCACCCAUGUGAUUA [E4/3-A1] (Eterna round: R97, puzzle: Exclusion 4)”, the “apparent KD of MS2 coat protein” value (input ligand: FMN 200 uM) is reported as 0.224 µM and the “apparent KD of MS2 coat protein” value (input ligand: none) is reported as 0.94 µM.

For “AAUAACAGAGGAUAUACUAUUUUAUGUGUUUAUUGUUUUGAACAUGAGGAUCACCCAUGUAGAAGGCUGAGUAA [JMF 38] (puzzle: Exclusion 2)”, the “apparent KD of MS2 coat protein” value [1] was 0.0275 µM.

With “CUUUUGUGAGGAUAUUAGUAGUUUAUAAUUAAAAUUAUUACUGAGAAGGCACAUGAGGAUCACCCAUGUACCAC [JR_Ex4_Sub030] (Eterna round: R97, puzzle: Exclusion 4)” the “apparent KD of MS2 coat protein” value (input ligand: FMN 200 uM) was 0.0928 µM and the “apparent KD of MS2 coat protein” value (input ligand: none) was 0.0218 µM.

For “GGAAGGCGAGGAUAUGCAAUAAAGCAGGCGAAGGCCUGCAAACAUGAGGAUCACCCAUGUAGAAGGCGCGAGAA [AK-MS2ROC-r4-exclusion2-6.6] (Eterna round: R97, puzzle: Exclusion 2)”, the “apparent KD of MS2 coat protein” value (input ligand: FMN 200 uM) was 0.0172 µM and the “apparent KD of MS2 coat protein” value (input ligand: none) was 0.0261 µM.
